The values below come from patent US20230203146A1.

Test [1] addresses FLAG tagged human Ang2 (Alexis Biochemicals) (human) (UniProt O15123). In words: competition ELISA, FLAG-hAng2 (0.02 nM) on coated hTie2/Fc. For orientation: In an ELISA, binding on a coated surface is turned into a signal by an enzyme label.
Test [2] shares this target. Briefly: AlphaScreen competition, periplasmic extract, FLAG-hAng2 / biotin-hTie2/Fc.
Test [3] has the same target. In words: competition ELISA, periplasmic extract, FLAG-hAng2 on hTie2/Fc.
Test [4] concerns the target FLAG-tagged human Ang2 (human) (UniProt O15123). In words: competition ELISA: FLAG-hAng2 binding to coated hTie2-Fc.

What is called IC50 is the point on the concentration scale where inhibition reaches its midpoint. High values mean a need for much substance, low ones inhibition by little substance.

Substitutions are numbered along the chain they refer to.

Sequence of FLAG-tagged human Ang2 (human) (O15123 19-496): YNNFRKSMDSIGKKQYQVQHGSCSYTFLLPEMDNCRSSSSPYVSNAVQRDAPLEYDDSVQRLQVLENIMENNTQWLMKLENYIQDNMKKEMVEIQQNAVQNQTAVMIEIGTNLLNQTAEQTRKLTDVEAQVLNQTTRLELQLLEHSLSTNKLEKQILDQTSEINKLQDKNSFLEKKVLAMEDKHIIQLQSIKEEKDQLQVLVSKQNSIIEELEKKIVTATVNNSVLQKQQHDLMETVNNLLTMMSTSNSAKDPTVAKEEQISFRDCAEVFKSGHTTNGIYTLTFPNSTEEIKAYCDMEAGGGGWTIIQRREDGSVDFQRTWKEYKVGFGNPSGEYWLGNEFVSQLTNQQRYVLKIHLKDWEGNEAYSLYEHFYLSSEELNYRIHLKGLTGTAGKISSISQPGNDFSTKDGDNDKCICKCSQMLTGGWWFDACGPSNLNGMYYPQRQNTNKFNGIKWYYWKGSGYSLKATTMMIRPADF
Sequence of FLAG tagged human Ang2 (Alexis Biochemicals) (human) (O15123 19-496): as above

B1: VHH 3A07 (VHH, not shown: small tags and cut ends)
VHH: EVQLVESGGGLVQPGGSLRLSCAASGFTLDYDAIGWFRQAPGKEREGVSCITSSDGITYYADSVKGRFTISRDNAKNTVYLQMNSLKPEDTAVYYCATGNRRIYYSDYALACFPYEYDYWGQGTQVTVSS
For B1, the IC50 in test [1] is 21 nM.

B2: VHH 2G01 (VHH, not shown: small tags and cut ends)
VHH: EVQLVESGGGLVQAGGSLRLSCAASGRTISSYAMAWFRQAPGKEREFVAAISLSGDSTYYADSVKGRFTISRDNAKNTVYLQMNSLKPEDTAEYYCAATDWDFEDIPEYYCSGYGCDESLFDSWGQGTQVTVSS
As to B2, the values for the % inh in test [2] and in test [3] were 55% and 39%, respectively.

B3: VHH 22G11 (VHH, not shown: small tags and cut ends)
VHH: EVQLVESGGGLVQAGGSLRLSCAVSGFTFDDYAIGWFRQAPGKEREGVSCISRSDGSPYYADSVKGRFTISSDNAKGTVYLQMSSLKPEDTAVYYCAASWSGAYYSGTYYCDRLYEYDAWGQGTQVTVSS
With B3, the % inh in test [2] was determined as 96%; in test [3], 100%.

B4: VHH 25B01 (VHH, not shown: small tags and cut ends)
VHH: EVQLVESGGGLVQAGGSLRLSCAASGFTFDDYAIGWFRQAPGKEREGVSCISSSDGSTYYADSVKGRFTISSDNAKNTVYLQMNSLKPEDTAVYYCAAAWGASRLPIGTMPPYEYDYWGQGTQVTVSS
In the case of B4, the % inh in test [2] came out at 61%; in test [3], 5%.

B5: VHH 00903 (VHH, not shown: small tags and cut ends)
VHH: EVQLVESGGGLVQPGGSLRLSCAASGFTLDDYAIGWFRQAPGKEREGVSSIRDNGGSTYYADSVKGRFTISSDNSKNTVYLQMNSLRPEDTAVYYCAAVPAGRLRFGEQWYPIYEYDAWGQGTLVTVSS
B5 yielded a concentration for half-maximal inhibition (IC50) in test [4] of 0.089 nM.

B6: VHH 00898 (VHH, not shown: small tags and cut ends)
VHH: B5 VHH with P14A, S50A, G55D, S75D, R87K, I113L
In test [4], B6 had an IC50 of 1.2 nM.

B7: VHH 00906 (VHH, not shown: small tags and cut ends)
VHH: B5 VHH with L29I, F106Y
In test [4], B7 returned a concentration for half-maximal inhibition (IC50) of 0.045 nM.

B8: VHH 00923 (VHH, not shown: small tags and cut ends)
VHH: B5 VHH with E1D, S50A, I113L
Consider B8, for which, in test [4], the half-maximal inhibitory concentration (IC50) was 0.7 nM.

B9: VHH 00905 (VHH, not shown: small tags and cut ends)
VHH: B5 VHH with L29I
In test [4], B9 registered an IC50 of 0.079 nM.

B10: VHH 00912 (VHH, not shown: small tags and cut ends)
VHH: B5 VHH with F27L, F106Y
The molecule B10 returned an IC50 in test [4] of 0.062 nM.

B11: VHH 00911 (VHH, not shown: small tags and cut ends)
VHH: B5 VHH with F27L
Turning to B11, the concentration for half-maximal inhibition (IC50) in test [4] was 0.059 nM.

B12: VHH 00913 (VHH, not shown: small tags and cut ends)
VHH: B5 VHH with F27L, L29I
Molecule B12 showed a half-maximal inhibitory concentration (IC50) in test [4] of 0.042 nM.

B13: VHH 00904 (VHH, not shown: small tags and cut ends)
VHH: B5 VHH with F106Y
As to B13, the IC50 in test [4] worked out at 0.062 nM.

B14: VHH 00914 (VHH, not shown: small tags and cut ends)
VHH: B5 VHH with F27L, L29I, F106Y
For the molecule B14, the 50% inhibitory concentration (IC50) in test [4] is 0.037 nM.

B15: VHH 00899 (VHH, not shown: small tags and cut ends)
VHH: B5 VHH with P14A, N54I, G55D, S75D, R87K, I113L
Molecule B15 came in with an IC50 in test [4] of 0.9 nM.

B16: VHH 00902 (VHH, not shown: small tags and cut ends)
VHH: B5 VHH with P14A, S50A, N54S, S75D, R87K, I113L
In turn, B16 displayed an IC50 in test [4] of 1.3 nM.

B17: VHH 00907 (VHH, not shown: small tags and cut ends)
VHH: B5 VHH with F27I
B17 returned a concentration for half-maximal inhibition (IC50) in test [4] of 0.062 nM.

B18: VHH 00900 (VHH, not shown: small tags and cut ends)
VHH: B5 VHH with P14A, A24V, G55D, S75D, R87K, I113L
As to B18, the 50% inhibitory concentration (IC50) in test [4] is 0.2 nM.

B19: VHH 00910 (VHH, not shown: small tags and cut ends)
VHH: B5 VHH with F27I, L29I, F106Y
For the molecule B19, the half-maximal inhibitory concentration (IC50) in test [4] was 0.042 nM.

B20: VHH 00909 (VHH, not shown: small tags and cut ends)
VHH: B5 VHH with F27I, L29I
In test [4], B20 came in with a half-inhibitory concentration (IC50) of 0.053 nM.

B21: VHH 00044 (VHH, not shown: small tags and cut ends)
VHH: EVQLVESGGGLVQPGGSLRLSCAASGFALDYYAIGWFRQAPGKEREGVSCISSSDGITYYVDSVKGRFTISRDNSKNTVYLQMNSLRPEDTAVYYCATDSGGYIDYDCMGLGYDYWGQGTLVTVSS
B21: in test [4], the IC50 was 0.069 nM.

B22: VHH 00924 (VHH, not shown: small tags and cut ends)
VHH: B21 VHH with E1D, D55G, V61A
On to B22, for which, in test [4], the IC50 stood at 0.11 nM.

B23: VHH 00045 (VHH, not shown: small tags and cut ends)
VHH: B21 VHH with V61A
Regarding B23, the IC50 in test [4] came out at 0.12 nM.

B24: VHH 00927 (VHH, not shown: small tags and cut ends)
VHH: B21 VHH with D55G, V61A, M109R
With B24, the IC50 in test [4] turned out to be 0.22 nM.

B25: VHH 00920 (VHH, not shown: small tags and cut ends)
VHH: B21 VHH with D55G, V61A
In turn, B25 yielded an IC50 in test [4] of 0.13 nM.

B26: VHH 00930 (VHH, not shown: small tags and cut ends)
VHH: B21 VHH with D55G, V61A, D99E, M109R
B26 yielded an IC50 in test [4] of 0.19 nM.

B27: VHH 00926 (VHH, not shown: small tags and cut ends)
VHH: B21 VHH with D55G, V61A, M109Q
The molecule B27 gave a 50% inhibitory concentration (IC50) in test [4] of 0.25 nM.

B28: VHH 00929 (VHH, not shown: small tags and cut ends)
VHH: B21 VHH with D55G, V61A, D99E, M109Q
Molecule B28 returned an IC50 in test [4] of 0.15 nM.

B29: VHH 00046 (VHH, not shown: small tags and cut ends)
VHH: B21 VHH with D55G
On to B29, for which the IC50 in test [4] is 0.095 nM.

B30: VHH 00931 (VHH, not shown: small tags and cut ends)
VHH: B21 VHH with D55G, V61A, D99E, M109S
Molecule B30 registered a half-maximal inhibitory concentration (IC50) in test [4] of 0.17 nM.

B31: VHH 00928 (VHH, not shown: small tags and cut ends)
VHH: B21 VHH with D55G, V61A, M109S
Molecule B31 yielded an IC50 in test [4] of 0.22 nM.

B32: VHH 10A03 (VHH, not shown: small tags and cut ends)
VHH: EVQLVESGGGSVQAGGSLRLSCAASERTFSPYAMGWFRQAPGKEREFVAHITWSAGSTYYADSVKGRFTISRDNAKNTVYLQMNSLKPEDTAVYYCAAKRRYGIVDRDYNDWGQGTQVTVSS
B32: the % inh in test [2] was determined as 67%; in test [3], 0%.

B33: VHH 15A06 (VHH, not shown: small tags and cut ends)
VHH: EVQLVESGGGLVQAGGSLRLSCAASGRTFSSYAMGWFRQAPGKEREFVARISWNGGSTYHADSVKGRFTISRDNPKNTVYLQMDSLKPEDAAIYYCAASIALVGGVTPHSYDYWGQGTQVTVSS
For B33, the figures for the % inh in test [2] and in test [3] were 72% and 0%, respectively.

B34: VHH 2F04 (VHH, not shown: small tags and cut ends)
VHH: EVQLVESGGGLVQAGGSLRLSCAASGFAFDDHLIGWFRQAPGKEREAVSCISRSAGSTYYADSVKGRFTISSDNAKNTVYLQMNSLKADDTAVYYCAAGPAWGRPASPLPYEYDYWGQGTQVTVSS
Turning to B34, in test [1], the IC50 came to 2.8 nM.

B35: VHH 19A03 (VHH, not shown: small tags and cut ends)
VHH: EVQLVESGGGLVQAGGSLRLSCAASGFTFDDYAIAWFRQAPGKEREGISCITPSDDRTYYADSVKGRFIISSDNAKNTVYLQMNSLKPEDTADYYCAAVPRLRGLGYWPYPEYEYDYWGQGTQVTVSS
Regarding B35, the % inh in test [2] and in test [3] was 74% each time.

B36: VHH 23C10 (VHH, not shown: small tags and cut ends)
VHH: EVQLVESGGGLVQPGGSLRLSCAASGFALDYYAIGWFRQAPGKEREGVSCISSSDGSTYYADSVKGRFTISRDNAKNTVYLQMNSLKPEDTAVYYCATDSLGYGSSCRMAPYEYDYWGQGTQVTVSS
With B36, the values for the % inh in test [2] and in test [3] were 57% and 37%, respectively.

B37: VHH 00039 (VHH, not shown: small tags and cut ends)
VHH: EVQLVESGGGLVQPGGSLRLSCAASGFTFDDYALGWFRQAAGKEREGVSCIRCSDGSTYYADSVKGRFTISRDNSKNTVYLQMNSLRPEDTAVYYCAASIVPRSKLEPYEYDAWGQGTLVTVSS
B37 came in with a concentration for half-maximal inhibition (IC50) in test [4] of 11.9 nM.

B38: VHH 00051 (VHH, not shown: small tags and cut ends)
VHH: B37 VHH with D55G, R72S
For B38, the IC50 in test [4] amounted to 16.1 nM.

B39: VHH 00921 (VHH, not shown: small tags and cut ends)
VHH: B37 VHH with A41P, D55G, R72S
With B39, the IC50 in test [4] came out at 30.4 nM.

B40: VHH 00040 (VHH, not shown: small tags and cut ends)
VHH: B37 VHH with A41P
The molecule B40 displayed an IC50 in test [4] of 6.4 nM.

B41: VHH 00049 (VHH, not shown: small tags and cut ends)
VHH: B37 VHH with R72S
Consider B41, for which, in test [4], the IC50 is 6.9 nM.

B42: VHH 00925 (VHH, not shown: small tags and cut ends)
VHH: B37 VHH with E1D, A41P, D55G, R72S
In test [4], B42 showed an IC50 of 22.1 nM.

B43: VHH 00050 (VHH, not shown: small tags and cut ends)
VHH: B37 VHH with A41P, R72S
In test [4], B43 gave an IC50 of 6 nM.
